Experimental findings from paper doi:10.1101/590646 are described below.

The experiment concerns the target SERINC5-VN-HA (human) (UniProt Q86VE9). Put plainly: split reporter.
Chain of UniProt Q86VE9 (Q86VE9 whole entry): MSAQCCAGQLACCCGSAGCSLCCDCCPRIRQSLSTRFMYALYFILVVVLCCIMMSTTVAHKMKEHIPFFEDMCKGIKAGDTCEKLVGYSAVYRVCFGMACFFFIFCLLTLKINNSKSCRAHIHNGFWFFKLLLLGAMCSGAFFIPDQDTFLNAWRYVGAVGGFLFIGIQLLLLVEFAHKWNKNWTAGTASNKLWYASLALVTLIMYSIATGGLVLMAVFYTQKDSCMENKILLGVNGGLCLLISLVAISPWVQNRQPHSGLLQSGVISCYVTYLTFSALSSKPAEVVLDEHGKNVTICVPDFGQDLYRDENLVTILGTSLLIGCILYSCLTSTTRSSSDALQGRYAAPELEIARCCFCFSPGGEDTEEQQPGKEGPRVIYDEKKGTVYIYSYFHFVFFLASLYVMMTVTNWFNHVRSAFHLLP

“Nef_(NL43)-V5-VC (HIV-1 NL4-3 Nef fused to a Venus fragment) (natural protein)” gave a fold increase in BiFC fluorescence over the singly expressed constructs of 4 fold.
